Experimental data taken from US20100189657A1, “INTRAMOLECULARLY QUENCHED FLUOROCHROME CONJUGATES AND METHODS OF USE” (THE GENERAL HOSPITAL CORPORATION, priority 2006, published 2010).
“Also recorded” adds a separate entry of the source.

Assay: Aqueous solubility of the probes
Assay type: physicochemical
Settings: aqueous solutions
Experimental: The absorption spectra of equimolar solutions of the probes based on the absorption peak of the free dye, CyTE-777 are shown in FIG. 4. […] The absorption band due to dye aggregation becomes slightly weaker with increasing PEG chain length. […] To determine if the aggregated fluorophores lead to quenching, fluorescence spectra of all the three probes were measured and compared to the fluorescence spectrum of an equimolar solution of CyTE-777 (FIG. 5).
These cysteine proteases are known to be important in biological processes and have similar substrate selectivity. […] The Leu-Arg dipeptide cathepsin S substrate was previously reported to be partially but not completely selective to cathepsin S. The selectivity observed for cathepsin S in the present study is higher than what was expected from the literature reports.

| SMILES | aqueous solubility |
| --- | --- |
| CC(C)C[C@H](NC(=O)CCNC(=O)CCOCCOCCOCCOCCNC(=O)CCOCCOCCOCCOCCNC(=O)CCOCCOCCOCCOCCNC(=O)CCSC1=C(/C=C/C2=[N+](CCCCS(=O)(=O)O)c3ccccc3C2(C)C)CCC/C1=C\C=C1\N(CCCCS(=O)(=O)O)c2ccccc2C1(C)C)C(=O)N[C@@H](CCCNC(=N)N)C(=O)NCCC(=O)NCCCC[C@H](NC(=O)CCNC(=O)[C@H](CCCNC(=N)N)NC(=O)[C@H](CC(C)C)NC(=O)CCNC(=O)CCOCCOCCOCCOCCNC(=O)CCOCCOCCOCCOCCNC(=O)CCOCCOCCOCCOCCNC(=O)CCSC1=C(/C=C/C2=[N+](CCCCS(=O)(=O)O)c3ccccc3C2(C)C)CCC/C1=C\C=C1\N(CCCCS(=O)(=O)O)c2ccccc2C1(C)C)C(=O)NCCCC[C@H](NC(=O)[C@H](CCCCNC(=O)CCNC(=O)[C@H](CCCNC(=N)N)NC(=O)[C@H](CC(C)C)NC(=O)CCNC(=O)CCOCCOCCOCCOCCNC(=O)CCOCCOCCOCCOCCNC(=O)CCOCCOCCOCCOCCNC(=O)CCSC1=C(/C=C/C2=[N+](CCCCS(=O)(=O)O)c3ccccc3C2(C)C)CCC/C1=C\C=C1\N(CCCCS(=O)(=O)O)c2ccccc2C1(C)C)NC(=O)CCNC(=O)[C@H](CCCNC(=N)N)NC(=O)[C@H](CC(C)C)NC(=O)CCNC(=O)CCOCCOCCOCCOCCNC(=O)CCOCCOCCOCCOCCNC(=O)CCOCCOCCOCCOCCNC(=O)CCSC1=C(/C=C/C2=[N+](CCCCS(=O)(=O)O)c3ccccc3C2(C)C)CCC/C1=C\C=C1\N(CCCCS(=O)(=O)O)c2ccccc2C1(C)C)C(=O)NCCC(=O)O [CyPEG-3] | satisfactory aqueous solubility |
| CC(C)C[C@H](NC(=O)CCNC(=O)CCOCCOCCOCCOCCNC(=O)CCOCCOCCOCCOCCNC(=O)CCSC1=C(/C=C/C2=[N+](CCCCS(=O)(=O)O)c3ccccc3C2(C)C)CCC/C1=C\C=C1\N(CCCCS(=O)(=O)O)c2ccccc2C1(C)C)C(=O)N[C@@H](CCCNC(=N)N)C(=O)NCCC(=O)NCCCC[C@H](NC(=O)CCNC(=O)[C@H](CCCNC(=N)N)NC(=O)[C@H](CC(C)C)NC(=O)CCNC(=O)CCOCCOCCOCCOCCNC(=O)CCOCCOCCOCCOCCNC(=O)CCSC1=C(/C=C/C2=[N+](CCCCS(=O)(=O)O)c3ccccc3C2(C)C)CCC/C1=C\C=C1\N(CCCCS(=O)(=O)O)c2ccccc2C1(C)C)C(=O)NCCCC[C@H](NC(=O)[C@H](CCCCNC(=O)CCNC(=O)[C@H](CCCNC(=N)N)NC(=O)[C@H](CC(C)C)NC(=O)CCNC(=O)CCOCCOCCOCCOCCNC(=O)CCOCCOCCOCCOCCNC(=O)CCSC1=C(/C=C/C2=[N+](CCCCS(=O)(=O)O)c3ccccc3C2(C)C)CCC/C1=C\C=C1\N(CCCCS(=O)(=O)O)c2ccccc2C1(C)C)NC(=O)CCNC(=O)[C@H](CCCNC(=N)N)NC(=O)[C@H](CC(C)C)NC(=O)CCNC(=O)CCOCCOCCOCCOCCNC(=O)CCOCCOCCOCCOCCNC(=O)CCSC1=C(/C=C/C2=[N+](CCCCS(=O)(=O)O)c3ccccc3C2(C)C)CCC/C1=C\C=C1\N(CCCCS(=O)(=O)O)c2ccccc2C1(C)C)C(=O)NCCC(=O)O [CyPEG-2] | satisfactory aqueous solubility; also recorded: much higher aqueous solubility |
| CC(C)C[C@H](NC(=O)CCNC(=O)CCOCCOCCOCCOCCNC(=O)CCSC1=C(/C=C/C2=[N+](CCCCS(=O)(=O)O)c3ccccc3C2(C)C)CCC/C1=C\C=C1\N(CCCCS(=O)(=O)O)c2ccccc2C1(C)C)C(=O)N[C@@H](CCCNC(=N)N)C(=O)NCCC(=O)NCCCC[C@H](NC(=O)CCNC(=O)[C@H](CCCNC(=N)N)NC(=O)[C@H](CC(C)C)NC(=O)CCNC(=O)CCOCCOCCOCCOCCNC(=O)CCSC1=C(/C=C/C2=[N+](CCCCS(=O)(=O)O)c3ccccc3C2(C)C)CCC/C1=C\C=C1\N(CCCCS(=O)(=O)O)c2ccccc2C1(C)C)C(=O)NCCCC[C@H](NC(=O)[C@H](CCCCNC(=O)CCNC(=O)[C@H](CCCNC(=N)N)NC(=O)[C@H](CC(C)C)NC(=O)CCNC(=O)CCOCCOCCOCCOCCNC(=O)CCSC1=C(/C=C/C2=[N+](CCCCS(=O)(=O)O)c3ccccc3C2(C)C)CCC/C1=C\C=C1\N(CCCCS(=O)(=O)O)c2ccccc2C1(C)C)NC(=O)CCNC(=O)[C@H](CCCNC(=N)N)NC(=O)[C@H](CC(C)C)NC(=O)CCNC(=O)CCOCCOCCOCCOCCNC(=O)CCSC1=C(/C=C/C2=[N+](CCCCS(=O)(=O)O)c3ccccc3C2(C)C)CCC/C1=C\C=C1\N(CCCCS(=O)(=O)O)c2ccccc2C1(C)C)C(=O)NCCC(=O)O [CyPEG-1] | practically insoluble |
